Test results: patent US7235648B1, “Yeast cells engineered to produce pheromone system protein surrogates, and uses therefor” (Cadus Technologies, Inc., priority 1993, dated 2007)
Ends that are not written are not given here.

Legend:
Format in all cases: cell-based
STE3 = target: T1, STE3 (Saccharomyces cerevisiae, UniProt P06783); assay: Autocrine yeast (CY599/CY2012, ste2-STE3) growth on histidine-deficient medium plus aminotriazole, fus1-HIS3 readout; details: for ability of the peptide-encoding plasmid to confer the His phenotype on CY2012 (a-factor analogues): -His medium with 0.2 mM 3-aminotriazole, random a-factor library
T1 construct: fragment containing the entire coding region of STE3 flanked by the two newly introduced Spe I sites; expressed in transfected cells; host or cells: S. cerevisiae CY599 / CY2012 (ste2-STE3, chromosomal replacement with Cadus 1147)
T1 sequence (P06783 1-470): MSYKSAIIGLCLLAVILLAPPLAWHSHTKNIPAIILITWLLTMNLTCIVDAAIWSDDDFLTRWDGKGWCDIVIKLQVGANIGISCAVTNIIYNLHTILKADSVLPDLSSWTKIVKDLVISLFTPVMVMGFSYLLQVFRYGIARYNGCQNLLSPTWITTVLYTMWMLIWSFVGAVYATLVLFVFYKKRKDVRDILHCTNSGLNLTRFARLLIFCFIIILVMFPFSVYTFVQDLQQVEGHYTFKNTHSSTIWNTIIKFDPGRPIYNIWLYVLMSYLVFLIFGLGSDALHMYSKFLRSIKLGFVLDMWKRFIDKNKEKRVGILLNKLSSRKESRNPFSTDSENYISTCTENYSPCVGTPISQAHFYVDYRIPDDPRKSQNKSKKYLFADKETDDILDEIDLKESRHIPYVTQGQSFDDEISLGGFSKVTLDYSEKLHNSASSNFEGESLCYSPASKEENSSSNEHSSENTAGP
Excerpt: A MATa strain designed for the expression of peptides in the context of MFA1 (i.e., using the MFA1 expression vector, Cadus 1239) has been constructed. The genotype of this strain, designated CY599, is […] mfa1 mfa2 far1-1 his3::fus1-HIS3 ste2-STE3 ura3 met1 ade1 leu2. In this strain, Cadus 1147 (see above) was used to replace STE2 with a hybrid gene in which the STE3 coding region is under the control of expression elements which normally drive the expression of STE2. As a result, the a-factor receptor replaces the α-factor receptor. The genes which encode a-factor are deleted from this strain: the far1 mutation abrogates the arrest of growth which normally follows stimulation of the pheromone response pathway; and the FUS1-HIS3 hybrid gene (integrated at the HIS3 locus) provides a selectable signal of activation of the pheromone response pathway. CY599 cells were expected to be capable of the transport of a-factor or a-factor-like peptides encoded by oligonucleotides expressed from Cadus 1239 by virtue of expression of the endogenous yeast transporter, Ste6.
Experiments were performed to test: 1. the ability of Cadus 1239 to function as a vector for the expression of peptides encoded by synthetic oligonucleotides; 2. the suitability of the oligonucleotides, as designed, to direct the export of farnesylated, carboxymethylated peptides through the pathway normally used by a-factor; 3. the capacity of CY599 to export these peptides; and 4. the ability of CY599 to respond to those peptides that stimulate the pheromone response pathway by growing on selective media. These tests were performed using an oligonucleotide which encodes the 12 amino acid a-factor; specifically, the degenerate sequence (NNN)n in the oligo-nucleotide cloned into Cadus 1239 (see above) (with n=12) encodes the peptide component of a-factor pheromone. CY599 was transformed with the resulting plasmid (Cadus 1220), and transformants selected on uracil-deficient medium were transferred to histidine-deficient medium supplemented with a range of concentrations of aminotriazole. […] Cadus 1220 and the designed oligonucleotide are competent to direct the expression and export of a farnesylated, carboxy-methylated peptide encoded by the (NNN)n sequence of the synthetic oligonucleotide; and 2. CY599 can, in an autocrine fashion, respond to a farnesylated, carboxy-methylated peptide that stimulates its pheromone response pathway, in this case signaling initiates as a-factor binds to STE3.
An optimized version of strain 6 (Example 2 above) was derived. This yeast strain, CY2012 (MATa ste2-STE3 far1Δ1442 mfa1::LEU2 mfa2-lacZ fus1-HIS3 tht1-1 ura3 leu2 his3 trp1 ste2), was constructed as follows. […]

STE2 receptor = target: T2, STE2 receptor (Saccharomyces cerevisiae, UniProt D6VTK4); assay: Autocrine MATa yeast (CY588/CY1455) growth on histidine-deficient medium plus aminotriazole, fus1-HIS3 readout; details: -His medium with 1.0 mM or 2.5 mM aminotriazole
T2 construct: endogenous in cells; host or cells: S. cerevisiae MATa CY588 / CY1455
T2 sequence (D6VTK4 1-431): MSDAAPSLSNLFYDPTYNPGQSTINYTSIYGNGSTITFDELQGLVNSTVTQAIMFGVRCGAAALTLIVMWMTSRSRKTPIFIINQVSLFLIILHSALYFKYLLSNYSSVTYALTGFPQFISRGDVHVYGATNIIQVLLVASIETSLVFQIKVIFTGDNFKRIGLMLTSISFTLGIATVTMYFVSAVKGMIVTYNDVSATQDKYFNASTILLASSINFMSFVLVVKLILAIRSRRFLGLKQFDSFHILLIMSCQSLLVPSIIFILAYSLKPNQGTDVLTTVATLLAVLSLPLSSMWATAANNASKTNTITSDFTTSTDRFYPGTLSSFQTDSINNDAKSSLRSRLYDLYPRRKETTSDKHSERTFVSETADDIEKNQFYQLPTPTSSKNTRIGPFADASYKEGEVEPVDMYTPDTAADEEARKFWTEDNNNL

WKK6 cells = assay: Valinomycin filter disk assay on lawns of ste6 yeast (WKK6) expressing human Mdr1 constructs; details: 5 mM valinomycin in DMSO on filter disk
Description: CADUS plasmids 1065, 1079 and 1097 as well as a URA3 control plasmid (pRS426=1019) were transformed into a ura3^−, ste6^− strain of yeast (WKK6=CY20=MATa ura3-1 leu2-3.112 his3-11.15 trp1-1 ade2-1 can1-100 ste6::HIS3, obtained from Karl Kuchler). Individual transformants were grown overnight in SD-URA media and lawns containing approximately 5×10^6 cells were poured onto YPD plates in 3 ml of YPD top agar. Sterile filter disks were placed on the plates after the top agar had solidified, and […] of DMSO or 5 mM valinomycin in DMSO were spotted onto the filter disks.

[1] = target: T3, wild-type human Mdr1 protein (Homo sapiens, UniProt P08183); assay: Halo assay of a-factor transport by human Mdr1 in ste6 yeast on supersensitive MATα lawn; details: yeast deleted for STE6; halo size 1097>1079~1065>1019
T3 construct: expressed in transfected cells; host or cells: S. cerevisiae WKK6 (CY20, ste6::HIS3), plasmid Cadus 1097
Description: A “halo” assay was performed by patching WKK6 cells containing the various Mdr1 constructs (1019, 1065, 1079 & 1097) onto a lawn of Matα cells which are supersensitive to a-factor (CY32=MATα leu2-3.112 trp1-289 ura3-52 his3*1 sst2*2 GAL+).

T3 sequence (P08183 whole entry): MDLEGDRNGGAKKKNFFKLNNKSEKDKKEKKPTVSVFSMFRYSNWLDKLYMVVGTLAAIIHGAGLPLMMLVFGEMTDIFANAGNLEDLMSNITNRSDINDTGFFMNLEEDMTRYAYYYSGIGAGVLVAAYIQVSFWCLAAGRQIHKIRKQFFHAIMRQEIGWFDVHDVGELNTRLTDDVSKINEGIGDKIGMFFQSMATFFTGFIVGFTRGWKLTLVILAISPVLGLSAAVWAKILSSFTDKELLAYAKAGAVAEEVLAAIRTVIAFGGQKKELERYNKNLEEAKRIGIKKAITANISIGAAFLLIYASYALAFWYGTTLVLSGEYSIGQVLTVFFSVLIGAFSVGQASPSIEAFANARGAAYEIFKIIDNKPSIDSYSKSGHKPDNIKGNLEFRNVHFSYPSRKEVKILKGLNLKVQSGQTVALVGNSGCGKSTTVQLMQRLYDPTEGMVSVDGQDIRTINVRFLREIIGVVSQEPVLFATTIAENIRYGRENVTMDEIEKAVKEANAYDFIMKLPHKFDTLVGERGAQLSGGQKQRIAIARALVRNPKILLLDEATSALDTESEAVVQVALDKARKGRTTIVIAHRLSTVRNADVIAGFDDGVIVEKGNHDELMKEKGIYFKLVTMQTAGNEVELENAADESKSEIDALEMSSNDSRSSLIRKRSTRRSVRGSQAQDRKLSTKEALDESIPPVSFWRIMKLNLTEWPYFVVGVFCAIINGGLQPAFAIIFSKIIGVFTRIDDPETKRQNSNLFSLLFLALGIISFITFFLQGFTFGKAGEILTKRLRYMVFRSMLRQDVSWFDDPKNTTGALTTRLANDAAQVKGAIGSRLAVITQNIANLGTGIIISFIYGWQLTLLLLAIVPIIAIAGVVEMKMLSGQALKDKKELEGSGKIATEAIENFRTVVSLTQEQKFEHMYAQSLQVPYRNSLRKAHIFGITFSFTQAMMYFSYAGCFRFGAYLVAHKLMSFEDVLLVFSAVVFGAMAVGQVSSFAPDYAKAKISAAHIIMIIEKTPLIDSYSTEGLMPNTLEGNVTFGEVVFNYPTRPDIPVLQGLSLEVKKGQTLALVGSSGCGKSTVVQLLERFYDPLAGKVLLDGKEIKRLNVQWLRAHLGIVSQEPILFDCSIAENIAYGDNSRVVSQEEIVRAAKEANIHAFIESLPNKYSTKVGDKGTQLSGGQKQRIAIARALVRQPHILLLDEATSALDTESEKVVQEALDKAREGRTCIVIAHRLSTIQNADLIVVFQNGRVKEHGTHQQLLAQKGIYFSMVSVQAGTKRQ

Compound | ability of the peptide-encoding plasmid to confer the His phenotype on CY2012 (a-factor analogues) (STE3) | agonist activity on the STE2 receptor, MFα-5.8 library (STE2 receptor) | further results
LMSPSFFFLPA [SEQ ID NO:57] | confer the His^− phenotype | – | –
Trp His Trp Leu Gln Leu Thr Pro Gly Gln Pro Met Tyr (WHWLQLTPGQPMY) [SEQ ID NO:47] | – | acted as agonists | –
CC(C)[C@@H]1NC(=O)[C@H](C)OC(=O)[C@@H](C(C)C)NC(=O)[C@@H](C(C)C)OC(=O)[C@H](C(C)C)NC(=O)[C@H](C)OC(=O)[C@@H](C(C)C)NC(=O)[C@@H](C(C)C)OC(=O)[C@H](C(C)C)NC(=O)[C@H](C)OC(=O)[C@@H](C(C)C)NC(=O)[C@@H](C(C)C)OC1=O [valinomycin] | – | – | resistance to valinomycin conferred by mutant Mdr1 (G185V) (WKK6 cells; WKK6 cells with plasmid 1079): weak resistance; resistance to valinomycin conferred by wild type Mdr1 (WKK6 cells; WKK6 cells with plasmid 1097): complete resistance
WHWMELRPGQPMY [SEQ ID NO:51] | – | acted as agonists | –
WHWLELMPGQPLY [SEQ ID NO49] | – | acted as agonists | –
Tyr Ile Ile Lys Gly Val Phe Trp Asp Pro Ala (YIIKGVFWDPA; not fully specified (C-terminus); printed as Tyr Ile Ile Lys Gly Val Phe Trp Asp Pro Ala; also: C-terminal cysteine carboxymethylated) [a-factor, yeast dodecapeptide mating pheromone with C-terminal farnesylated, carboxymethylated cysteine, reference compound] | – | – | transport by wild-type human Mdr1 protein [1]: can be transported; aminotriazole-resistant growth on histidine-deficient media (autocrine response, a-factor binds to STE3) (STE3; CY599 transformed with Cadus 1220, range of aminotriazole concentrations): enhanced aminotriazole-resistant growth

More lines, main results first:

ability of the peptide-encoding plasmid to confer the His phenotype on CY2012 (a-factor analogues) (STE3) | Compound | agonist activity on the STE2 receptor, MFα-5.8 library (STE2 receptor) | further results
confer the His^− phenotype | YALFVHFFDIP [SEQ ID NO:53] | – | –
confer the His^− phenotype | FKGQVRFVVLA [SEQ ID NO:55] | – | –
